Laboratory results as given in patent publication US9952227B2, “Method for detecting bilirubin” (Research Foundation of the City University of New York, priority 2015, dated 2018).
Where “and” joins values, the source holds several entries; their conditions need not be identical. Identical values can stand only once. Like-named read-outs stand apart in the source and are kept apart here.

Key:
mammalian cells = assay: Fluorescence of expressed protein in mammalian cells upon addition of exogenous bilirubin; format: cell-based
From the text: (§1) Hayashi and Toda reported that Anguilla japonica (heavily farmed in Japanese aquaculture and a historical staple of Japanese cuisine) was weakly green fluorescent. They purified a fluorescent protein from A. japonica muscle tissue and isolated and sequenced several peptide fragments. […] Then in 2013, Kumagai et al., published a full characterization of the fluorescent protein from A. japonica. […] The Kaupichthys hyoproroides and Kaupichthys n. sp. data was re-examined and found a single transcript in each of the two species' transcriptomes that encoded an FABP including the Gly-Pro-Pro insertion. […] These proteins, termed Chlopsid FP I and Chlopsid FP II, are orthologs of UnaG (FIG. 1). FIG. 1 depicts sequence alignment of fluorescent FABPs from eels with a non-fluorscent FABP from Kaupichthys hyoproroides (Chlopsid NFP) and human brain FABP-7. Areas of homology are identified with solid lines boxes. The GPP sequence motif is identified with a dotted lined box.

E. coli = assay: Fluorescence of expressed protein in E. coli upon addition of exogenous bilirubin; format: cell-based
From the text: as §1
Protein Expression and Purification. Candidate ORFs were selected from eel transcriptome data containing an unusual sequence motif (Gly-Pro-Pro) on a loop between two beta sheets in the FABP sequence. […] Protein concentration was determined by A280 measurements, using calculated extinction coefficients of 15,300 M^−1 cm^−1 for Chlopsid FP I, and 16,600 M^−1 cm^−1 for Chlopsid FP II. […]

[1] = Fluorescence quantum yield; format: physicochemical
Protocol: The fluorescence quantum yield of Chlopsid FP I was determined to be 0.47. […] These values are close to the reported quantum yield for UnaG of 0.51 (Table 1). Two prolines in the Gly-Pro-Pro sequence motif were mutated to glycine.

[2] = Fluorescence excitation and emission spectra; format: physicochemical
Protocol: In Chlopsid FP I and Chlopsid FP II this amino acid is a histidine. This difference in amino acid sequence can potentially explain the fluorescence shift, due to an increase in the π conjugation of the system.
Fluorescence Spectroscopy: Fluorescence excitation and emission spectra were recorded using a F-7000 Hitachi Fluorescence Spectrometer.

HEK293 cells = assay: Expression of Chlopsid FP I in HEK293 cells, single and two-photon imaging; format: cell-based
Protocol: Expression in Mammalian Cells: Chlopsid FP I was expressed in mammalian cells (HEK293) without the addition of bilirubin. […] The two-photon excitation was fairly flat from 700-1000 nm with a peak at 860 nm and an unusual dip at 840 nm.
Expression of Chlopsid FP I in HEK293 Cells: A pCS2+vector was used for cloning of Chlopsid FP I for expression in HEK293 cells (ATCC, USA) using Kpn-Sphl cloning sites. Plasmids were prepared by Genscript USA, Inc. The expression was driven in HEK293 cells (ATCC, USA) by CMV promotor. The HEK293 cell line was maintained in Dulbecco's Modified Eagle Medium (High Glucose) (DMEM) (Invitrogen, USA), supplemented with 10% fetal bovine serum (FBS) (Sigma-Aldrich, USA), in a 37° C. incubator with 5% CO2. Transient transfection was performed using 2 μg of DNA per 35 mm dish and 5 μg of Lipofectamine 2000 (Invitrogen, N.Y.). Cells were imaged on a custom-made 2-photon microscope using a Chameleon Ti-Sapphire laser (Coherent Inc, CA) and water immersion 20×/0.95 N.A. objective (Olympus, Japan). Images were taken using 850 nm laser light with power of 15 mW at the objective.

[3] = reported value for reference fluorescent protein; cited from earlier work
[4] = reference fluorescent protein; cited from earlier work

Molecule	Fluorescence upon addition of exogenous bilirubin (mammalian cells)	Fluorescence upon addition of exogenous bilirubin (E. coli)	Fluorescence quantum yield [1]	Ex/Em maxima: emission maximum [2]	Ex/Em maxima: excitation maximum [2]	Two-photon excitation dip (HEK293 cells; HEK293)	Two-photon excitation peak (HEK293 cells; HEK293, excitation fairly flat from 700-1000 nm)	Fluorescence of expressing cells (HEK293 cells; HEK293, without the addition of bilirubin, single and two-photon imaging)	Fluorescence quantum yield [3]	Ex/Em maxima: emission maximum [4]	Ex/Em maxima: excitation maximum [4]
Chlopsid FP I: bilirubin-inducible fluorescent fatty acid-binding protein from Kaupichthys hyoproroides, SEQ ID NO: 1 (protein, Kaupichthys hyoproroides) MFEDFLGTWKCIDSQNFGAYLAAIGAPPVLSERADATRPTVHFNRDGDKLSLKVEHGPPPLKDVLLSFKLGEEFDEHPTDGRKCKTLVTFEGDKLLYLQKWDGKETVVVREIRDGNVVATLSHEGVVALRVYKKVAGPTALE	strong green fluorescence	strong green fluorescence	0.47	527 nm and 524 nm	498 nm and 490 nm	840 nm	860 nm	bright fluorescence			
Chlopsid FP II: bilirubin-inducible fluorescent fatty acid-binding protein from Kaupichthys n. sp., SEQ ID NO: 2 (protein, Kaupichthys hyoproroides) MFEDFLGTWECIDSQNFGAYLAAVGAPPVLSDRADATRPTVYFNRDGDKLSLKVEHGPPPLKDVILSFKLGEEFDEHPTDGRKCKTLVTFEGDKLLYLQKWDGKETVVVREIRDGNVVATLSHEGVVALRVYKKVAGPTA	strong green fluorescence	strong green fluorescence	0.37	527 nm and 524 nm	498 nm and 490 nm						
UnaG: bilirubin inducible fluorescent protein from Anguilla japonica, novel member of the FABP family (protein, UniProt P0DM59 1-139, looked up) Bilirubin-inducible …: MVEKFVGTWKIADSHNFGEYLKAIGAPKELSDGGDATTPTLYISQKDGDKMTVKIENGPPTFLDTQVKFKLGEEFDEFPSDRRKGVKSVVNLVGEKLVYVQKWDGKETTYVREIKDGKLVVTLTMGDVVAVRSYRRATE									0.51	523 nm and 530 nm	489 nm and 498 nm
